This passage reports Kd results from patent US20260297144 (published 2026).

Residue numbers refer to the chain shown, from its start.

Test [1] deals with T1, C3b (human, UniProt P01024). Description: SPR steady state, Fc 2-1, 10C.
The target in test [2] is T1, C3b. Put plainly: SPR steady state, Fc 4-1, 10C.
The target of test [3] is T1, C3b. Put plainly: SPR steady state, Fc 3-1, 10C.

T1 sequence (P01024 23-667, chain 1 of 2): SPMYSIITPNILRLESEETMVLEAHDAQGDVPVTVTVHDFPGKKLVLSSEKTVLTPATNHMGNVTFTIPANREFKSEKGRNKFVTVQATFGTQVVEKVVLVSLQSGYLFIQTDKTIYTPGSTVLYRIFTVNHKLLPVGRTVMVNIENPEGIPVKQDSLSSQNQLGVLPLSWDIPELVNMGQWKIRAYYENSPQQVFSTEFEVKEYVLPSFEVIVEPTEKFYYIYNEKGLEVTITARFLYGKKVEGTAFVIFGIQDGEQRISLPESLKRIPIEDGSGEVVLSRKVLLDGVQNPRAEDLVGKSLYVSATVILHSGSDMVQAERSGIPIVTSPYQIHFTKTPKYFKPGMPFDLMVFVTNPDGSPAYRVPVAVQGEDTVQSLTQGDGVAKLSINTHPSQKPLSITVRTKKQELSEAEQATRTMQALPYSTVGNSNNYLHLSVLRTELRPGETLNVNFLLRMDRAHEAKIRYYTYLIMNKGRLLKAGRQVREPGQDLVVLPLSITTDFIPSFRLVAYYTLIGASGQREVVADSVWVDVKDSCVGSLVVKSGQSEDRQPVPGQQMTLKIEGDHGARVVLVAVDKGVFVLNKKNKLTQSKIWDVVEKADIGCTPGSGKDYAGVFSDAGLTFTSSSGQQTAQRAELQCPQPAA
T1 sequence (P01024 749-1663, chain 2 of 2): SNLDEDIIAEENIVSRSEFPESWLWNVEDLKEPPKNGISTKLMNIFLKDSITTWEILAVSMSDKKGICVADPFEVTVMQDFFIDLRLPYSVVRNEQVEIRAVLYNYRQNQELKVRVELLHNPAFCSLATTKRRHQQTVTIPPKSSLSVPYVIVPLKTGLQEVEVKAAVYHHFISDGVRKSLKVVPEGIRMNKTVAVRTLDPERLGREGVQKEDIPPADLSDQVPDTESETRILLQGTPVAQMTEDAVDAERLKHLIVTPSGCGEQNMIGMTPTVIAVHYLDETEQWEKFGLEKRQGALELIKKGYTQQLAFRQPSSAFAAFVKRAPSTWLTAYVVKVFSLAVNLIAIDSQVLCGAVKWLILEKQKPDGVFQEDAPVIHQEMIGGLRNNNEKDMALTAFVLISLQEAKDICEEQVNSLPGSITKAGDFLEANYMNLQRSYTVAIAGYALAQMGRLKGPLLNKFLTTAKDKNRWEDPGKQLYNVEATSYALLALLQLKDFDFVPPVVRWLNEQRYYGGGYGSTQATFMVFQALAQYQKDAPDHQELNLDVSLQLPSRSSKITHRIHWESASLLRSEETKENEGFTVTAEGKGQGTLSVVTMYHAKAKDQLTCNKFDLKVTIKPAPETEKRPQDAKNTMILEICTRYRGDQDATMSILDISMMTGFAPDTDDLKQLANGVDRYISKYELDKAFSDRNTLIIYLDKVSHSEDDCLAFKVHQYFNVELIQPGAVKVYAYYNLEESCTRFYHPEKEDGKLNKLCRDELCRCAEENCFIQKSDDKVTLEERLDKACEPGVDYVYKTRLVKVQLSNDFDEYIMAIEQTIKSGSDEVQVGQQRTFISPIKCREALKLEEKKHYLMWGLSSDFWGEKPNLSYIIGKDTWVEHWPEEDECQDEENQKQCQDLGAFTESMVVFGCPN

B1: Sial-moss FH (protein)
chain: EDCNELPPRRNTEILTGSWSDQTYPEGTQAIYKCRPGYRSLGNIIMVCRKGEWVALNPLRKCQKRPCGHPGDTPFGTFTLTGGNVFEYGVKAVYTCNEGYQLLGEINYRECDTDGWTNDIPICEVVKCLPVTAPENGKIVSSAMEPDREYHFGQAVRFVCNSGYKIEGDEEMHCSDDGFWSKEKPKCVEISCKSPDVINGSPISQKIIYKENERFQYKCNMGYEYSERGDAVCTESGWRPLPSCEEKSCDNPYIPNGDYSPLRIKHRTGDEITYQCRNGFYPATRGNTAKCTSTGWIPAPRCTLKPCDYPDIKHGGLYHENMRRPYFPVAVGKYYSYYCDEHFETPSGSYWDHIHCTQDGWSPAVPCLRKCYFPYLENGYNQNYGRKFVQGKSIDVACHPGYALPKAQTTVTCMENGWSPTPRCIRVKTCSKSSIDIENGFISESQYTYALKEKAKYQCKLGYVTADGETSGSITCGKDGWSAQPTCIKSCDIPVFMNARTKNDFTWFKLNDTLDYECHDGYESNTGSTTGSIVCGYNGWSDLPICYERECELPKIDVHLVPDRKKDQYKVGEVLKFSCKPGFTIVGPNSVQCYHFGLSPDLPICKEQVQSCGPPPELLNGNVKEKTKEEYGHSEVVEYYCNPRFLMKGPNKIQCVDGEWTTLPVCIVEESTCGDIPELEHGWAQLSSPPYYYGDSVEFNCSESFTMIGHRSITCIHGVWTQLPQCVAIDKLKKCKSSNLIILEEHLKNKKEFDHNSNIRYRCRGKEGWIHTVCINGRWDPEVNCSMAQIQLCPPPPQIPNSHNMTTTLNYRDGEKVSVLCQENYLIQEGEEITCKDGRWQSIPLCVEKIPCSQPPQIEHGTINSSRSSQESYAHGTKLSYTCEGGFRISEENETTCYMGKWSSPPQCEGLPCKSPPEISHGVVAHMSDSYQYGEEVTYKCFEGFGIDGPAIAKCLGEKWSHPPSCIKTDCLSLPSFENAIPMGEKKDVYKAGEQVTYTCATYYKMDGASNVTCINSRWTGRPTCRDTSCVNPPTVQNAYIVSRQMSKYPSGERVRYQCRSPYEMFGDEEVMCLNGNWTEPPQCKDSTGKCGPPPPIDNGDITSFPLSVYAPASSVEYQCQNLYQLEGNKRITCRNGQWSEPPKCLHPCVISREIMENYNIALRWTAKQKLYSRTGESVEFVCKRGYRLSSRSHTLRTTCWDGKLEYPTCAKR
The Kd is the equilibrium constant for the complex coming apart. The low end stands for tighter binding, the high end for weaker binding. As for B1, the Kd in the test with C3b [1] came out at 48.2 nM; with C3b [2] it was 51 nM; in the test with C3b [3], 42.9 nM.

B2: Serum derived FH (sd-FH) (protein)
chain: B1 chain with I44V
In the case of B2, the results for the Kd in the test with C3b [1], in the test with C3b [2] and with C3b [3] were 110 nM, 144 nM and 104 nM, respectively.
